This note sets out measurements from publication PMC5228624.

For this series, the target named is T1, arginine vasopressin (AVP) (UniProt P01185 20-28).
T1 chain: CYFQNCPRG
Description: bead capture, thermal elution, MALDI-TOF MS.

Turning to ACCTGGGGGAGTATTGCGGAGGAAGGTAAAAAAA (ssDNA) [ATP-specific aptamer (control)], the binding result was “no binding”.
